Paper PMC12065894 (Nature Communications, 2025)

Biological target: the molecule itself
Assay: crystal structure; contact between molecules of the crystal lattice: the cleaved zymogen activation motif of one protease molecule lies in the substrate binding cleft of a neighbouring one; crystals grown at 18 °C

B1: dasTMPRSS11D (active, autocleaved TMPRSS11D with DDDDK zymogen activation motif) (enzyme)
chain 1: ANWLINECGAGPDLITDDDDK
chain 2: not shown
notes: also called active dasTMPRSS11D; Human Airway Trypsin-like protease
B1: binds.
